Earlier results on three substances are cited in paper PMC5322387.

The target of data set [1] is E2 L2 L2 (Homo sapiens) (UniProt P10515). Description: gel filtration.
The target is the same in data set [2]. As to the kind of experiment: ITC.
Data set [3] concerns the target E3BP L3 L3 (Homo sapiens) (UniProt O00330). Description: ITC.

Chain of E2 L2 L2 (Homo sapiens) (P10515 218-294): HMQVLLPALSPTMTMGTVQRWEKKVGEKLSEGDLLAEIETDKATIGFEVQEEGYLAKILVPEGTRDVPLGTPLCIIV
Chain of E3BP L3 L3 (Homo sapiens) (O00330 56-132): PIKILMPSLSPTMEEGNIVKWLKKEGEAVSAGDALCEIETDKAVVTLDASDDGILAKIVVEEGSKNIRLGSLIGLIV
Chain of PDK3 (Q15120 2-406): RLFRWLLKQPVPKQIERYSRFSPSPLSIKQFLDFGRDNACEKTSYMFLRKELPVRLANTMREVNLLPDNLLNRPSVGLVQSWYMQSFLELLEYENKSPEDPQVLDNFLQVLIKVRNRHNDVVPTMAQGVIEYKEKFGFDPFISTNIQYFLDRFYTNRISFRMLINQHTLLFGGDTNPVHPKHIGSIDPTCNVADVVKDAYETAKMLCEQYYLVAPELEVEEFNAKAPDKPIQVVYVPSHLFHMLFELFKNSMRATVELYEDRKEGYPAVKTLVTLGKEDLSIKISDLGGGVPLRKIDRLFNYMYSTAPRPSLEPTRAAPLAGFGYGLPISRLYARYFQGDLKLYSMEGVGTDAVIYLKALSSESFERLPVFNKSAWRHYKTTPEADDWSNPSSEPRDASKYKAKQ
Chain of PDK1 (Q15118 29-436): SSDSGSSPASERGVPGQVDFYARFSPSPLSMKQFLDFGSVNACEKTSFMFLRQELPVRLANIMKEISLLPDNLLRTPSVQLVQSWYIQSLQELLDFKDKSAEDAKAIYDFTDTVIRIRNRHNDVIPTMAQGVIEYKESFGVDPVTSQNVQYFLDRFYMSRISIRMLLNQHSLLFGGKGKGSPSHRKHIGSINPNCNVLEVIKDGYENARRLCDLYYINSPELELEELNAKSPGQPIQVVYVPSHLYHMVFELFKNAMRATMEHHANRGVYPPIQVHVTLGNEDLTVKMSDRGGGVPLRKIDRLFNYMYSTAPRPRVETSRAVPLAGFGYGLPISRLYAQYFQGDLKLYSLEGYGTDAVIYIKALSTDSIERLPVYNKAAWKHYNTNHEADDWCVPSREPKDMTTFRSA
Chain of PDK4 (Q16654 2-411): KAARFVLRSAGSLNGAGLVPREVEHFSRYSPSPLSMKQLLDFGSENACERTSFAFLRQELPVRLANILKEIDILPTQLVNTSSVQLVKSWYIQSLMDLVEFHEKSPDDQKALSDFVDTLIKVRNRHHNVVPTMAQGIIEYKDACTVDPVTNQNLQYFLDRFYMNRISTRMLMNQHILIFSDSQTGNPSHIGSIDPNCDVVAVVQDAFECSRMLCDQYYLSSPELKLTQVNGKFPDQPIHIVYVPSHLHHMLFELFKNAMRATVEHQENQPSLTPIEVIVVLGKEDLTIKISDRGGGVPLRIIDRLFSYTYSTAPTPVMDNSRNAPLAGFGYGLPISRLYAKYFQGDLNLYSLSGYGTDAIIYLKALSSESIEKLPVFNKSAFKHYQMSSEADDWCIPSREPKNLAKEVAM

Turning to PDK1 (from UniProt Q15118), the Kd in data set [1] is 10 µM.

As to PDK3 (from UniProt Q15120), the Kd in data set [2] is 1.17 µM.

Take PDK4 (from UniProt Q16654): in data set [3], the Kd is 5 µM.
